In article PMC10747088, “Self-Penetrating Oligonucleotide Derivatives: Features of Self-Assembly and Interactions with Serum and Intracellular Proteins”:

Target: human serum albumin (HSA) (Homo sapiens, UniProt P02768 25-609)
Test: fluorescence titration (FAM); PBS; 10 uM oligomer; HSA Kd: 10 uM oligomer, PBS, 30 min, 25 C (Methods) or 37 C (Figure S7); HSA EMSA: TA/TAM buffer, 1 h, native 8% PAAG at 37 C; Ku/PARP1 EMSA: 50 mM Tris-HCl pH
Conditions: protein: commercial, label: 5'-FAM, single strand, micelles

human serum albumin (HSA), sequence (P02768 25-609): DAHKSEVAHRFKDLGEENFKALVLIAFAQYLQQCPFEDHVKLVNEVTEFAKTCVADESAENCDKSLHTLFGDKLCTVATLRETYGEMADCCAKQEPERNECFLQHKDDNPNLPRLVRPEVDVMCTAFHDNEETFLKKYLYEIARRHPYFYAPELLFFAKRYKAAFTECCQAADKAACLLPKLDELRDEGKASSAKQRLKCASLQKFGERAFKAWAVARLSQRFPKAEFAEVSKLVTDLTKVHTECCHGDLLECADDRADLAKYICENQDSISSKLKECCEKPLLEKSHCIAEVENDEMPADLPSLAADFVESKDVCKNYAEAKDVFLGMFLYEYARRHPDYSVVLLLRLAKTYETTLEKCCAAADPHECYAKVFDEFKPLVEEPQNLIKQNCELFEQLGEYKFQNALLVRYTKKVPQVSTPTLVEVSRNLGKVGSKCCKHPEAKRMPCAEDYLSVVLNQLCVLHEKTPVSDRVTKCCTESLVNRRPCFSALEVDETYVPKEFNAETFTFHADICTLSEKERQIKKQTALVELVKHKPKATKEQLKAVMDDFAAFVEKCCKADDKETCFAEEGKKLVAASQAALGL

B1: FAM-TZD16 (FAM-TZ16) (ssDNA)
DNA: CTGACTATGAAGTATT
modifications: triazinyl phosphoramidate with two dodecyl groups at the last internucleotide phosphate (T15*T16)
  Kd: 1500 ± 100 nM

B2: FAM-TZD17 (FAM-TZ17) (ssDNA)
DNA: AGTCTCGACTTGCTATT
modifications: triazinyl phosphoramidate with two dodecyl groups at the last internucleotide phosphate (T16*T17)
Can form weak hairpin or self-dimers
  Kd: 1200 ± 200 nM
